Target: prefusion-stabilized SARS-CoV-2 S-trimer protein (wild type, Wuhan-Hu-1) (SARS-CoV-2, UniProt P0DTC2)
Test: cell-based or functional assay

B1: MAb S3H3 (antibody, V domains shown)
VH: QVQLQQPGAELVRPGASVKLSCKASGYSFTRFWMNWVKQRPGQGLEWIGMIHPSDSETRLNQKFKDKATLTVDKSSTTAYMQLSSPTSEDSAVYYCARKDYDYDAWFAYWGQGTLVTVSA
VL: DIVLTQSPASLAVSLGQRATISCRASKSVSASVYSYMHWYQQKPGQPPKLLIYLASSLESGVPARFSGSGSGTDFTLNIHPVEEEDAATYYCHHSRELPPAFGGGTKLEIK
  IC50 of neutralisation of WT S pseudovirus: 0.083 µg/mL
